Here are results for three molecules from PMC7137648 (2020).

B1: SR-F1(20-221) (domain or fragment)
chain: SELDPKGQHVCVASSPSAELQCCAGWRQKDQECTIPICEGPDACQKDEVCVKPGLCRCKPGFFGAHCSSRCPGQYWGPDCRESCPCHPHGQCEPATGACQCQADRWGARCEFPCACGPHGRCDPATGVCHCEPGWWSSTCRRPCQCNTAAARCEQATGACVCKPGWWGRRCSFRCNCHGSPCEQDSGRCACRPGWWGPECQQLIK
B2: SR-F1(20-421), recombinant soluble SR-F1 ectodomain (domain or fragment)
chain: SELDPKGQHVCVASSPSAELQCCAGWRQKDQECTIPICEGPDACQKDEVCVKPGLCRCKPGFFGAHCSSRCPGQYWGPDCRESCPCHPHGQCEPATGACQCQADRWGARCEFPCACGPHGRCDPATGVCHCEPGWWSSTCRRPCQCNTAAARCEQATGACVCKPGWWGRRCSFRCNCHGSPCEQDSGRCACRPGWWGPECQQQCECVRGRCSAASGECTCPPGFRGARCELPCPAGSHGVQCAHSCGRCKHNEPCSPDTGSCESCEPGWNGTQCQQPCLPGTFGESCEQQCPHCRHGEACEPDTGHCQRCDPGWLGPRCEDPCPTGTFGEDCGSTCPTCVQGSCDTVTGDCVCSAGYWGPSCNASCPAGFHGNNCSVPCECPEGLCHPVSGSCQPGSGSRDTLIK
modifications: N-linked glycans at Asn 289, 382 and 393
B3: SR-F1(20-353) (domain or fragment)
chain: SELDPKGQHVCVASSPSAELQCCAGWRQKDQECTIPICEGPDACQKDEVCVKPGLCRCKPGFFGAHCSSRCPGQYWGPDCRESCPCHPHGQCEPATGACQCQADRWGARCEFPCACGPHGRCDPATGVCHCEPGWWSSTCRRPCQCNTAAARCEQATGACVCKPGWWGRRCSFRCNCHGSPCEQDSGRCACRPGWWGPECQQQCECVRGRCSAASGECTCPPGFRGARCELPCPAGSHGVQCAHSCGRCKHNEPCSPDTGSCESCEPGWNGTQCQQPCLPGTFGESCEQQCPHCRHGEACEPDTGHCQRCDPGWLGPRCEDPCPTGTFGEDCGSLIK
modifications: N-linked glycan at Asn 289

The target of the assay is complement protein C1q (human, UniProt P02745 23-245; P02746 28-253; P02747 29-245). As to the kind of experiment: SPR. On the technique in general: Surface plasmon resonance follows binding to a sensor surface in real time, without labels.
Sequence of complement protein C1q (P02745 23-245, chain 1 of 3): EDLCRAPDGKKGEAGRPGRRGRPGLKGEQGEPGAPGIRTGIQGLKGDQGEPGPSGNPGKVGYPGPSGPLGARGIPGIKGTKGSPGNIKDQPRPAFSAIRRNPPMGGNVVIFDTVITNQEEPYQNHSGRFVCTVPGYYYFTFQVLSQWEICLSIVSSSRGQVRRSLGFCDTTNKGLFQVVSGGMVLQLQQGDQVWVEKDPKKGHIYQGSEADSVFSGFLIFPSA
Sequence of complement protein C1q (P02746 28-253, chain 2 of 3): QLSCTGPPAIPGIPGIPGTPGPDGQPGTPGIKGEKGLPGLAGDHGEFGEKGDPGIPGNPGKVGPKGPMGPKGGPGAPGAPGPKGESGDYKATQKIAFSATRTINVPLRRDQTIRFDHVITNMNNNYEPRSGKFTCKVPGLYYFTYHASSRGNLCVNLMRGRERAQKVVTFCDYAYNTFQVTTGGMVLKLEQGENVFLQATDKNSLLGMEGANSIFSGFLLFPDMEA
Sequence of complement protein C1q (P02747 29-245, chain 3 of 3): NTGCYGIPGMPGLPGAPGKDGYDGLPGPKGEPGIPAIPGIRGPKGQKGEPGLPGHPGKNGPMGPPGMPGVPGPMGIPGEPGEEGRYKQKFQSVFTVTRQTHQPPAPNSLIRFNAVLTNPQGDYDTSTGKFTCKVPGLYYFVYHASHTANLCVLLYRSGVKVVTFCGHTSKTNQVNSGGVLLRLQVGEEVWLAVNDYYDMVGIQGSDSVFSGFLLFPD
On to B1, for which the Kd (as a rule, the equilibrium constant for the complex coming apart) was 19 nM. The figure for B2 is 154 nM; for B3 it is 42 nM.
